Measured values published in US7414023B2, “Peptide ligands for prostate specific antigen” (Licentia Ltd., priority 2000, dated 2008).
Blank lines part the entries; values can stand above or below the molecule they belong to. Bridge positions count the residues as written; N and C are the ends. Square brackets hold non-standard residues; d marks the D form. Ends that are not written are not given here. Peptide text beside a SMILES is read from it. Ahx = NCCCCCC(=O)O

Columns and labels:
PSA [1] = molecular target: T1, PSA (Homo sapiens, UniProt P07288); assay: PSA activity measurements with modified peptides, substrate S-2586 (Example 5); assay type: biochemical; design: PSA was purified from human seminal fluid as described previously (3); from tissue; host or cells: human seminal fluid; key to activity of modified peptide (active / inactive): PSA-peptide/PSA ratio above 1.1 was interpreted to be active; below 1.1 as inactive; conditions: for activity of modified peptide (active / inactive): from PSA-peptide/PSA ratio; for effect of modification on the activity of the peptide (in words): compared with parent A-1, B-2 or C-4
T1 sequence (P07288 25-261): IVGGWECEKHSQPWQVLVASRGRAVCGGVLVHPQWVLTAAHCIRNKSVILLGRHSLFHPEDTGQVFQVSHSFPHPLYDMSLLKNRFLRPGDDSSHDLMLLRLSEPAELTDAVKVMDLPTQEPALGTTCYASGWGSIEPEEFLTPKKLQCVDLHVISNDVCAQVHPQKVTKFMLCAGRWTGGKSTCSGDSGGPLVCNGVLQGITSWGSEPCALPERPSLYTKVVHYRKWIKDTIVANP
Experimental: PSA activity measurements: The effect of different peptides on the activity of PSA was studied by using chymotrypsin substrate S-2586 (MeO-Suc-Arg-Pro-Tyr-pNA) (Chromogenix, Mölndal, Sweden). 77 pmoles (2 μg) of PSA, substrate and 10 μmoles of different peptides were incubated in Tris-buffer (10 mM Tris and 150 mM NaCl at pH 7.8) with 0.2 mM concentration of the substrate at room temperature. PSA reaction without any peptide was used as basic level control. Reaction was measured after 60 minutes incubation at […] using Multiscan RC photometer (Labsystems, Finland). The effect of the peptides was calculated as a ratio from the OD value of PSA-peptide complex to PSA alone after 60 minutes incubation.

PSA [2] = molecular target: T1, PSA; assay: Enzyme activity of PSA with chromogenic substrate S-2586; assay type: biochemical; design: PSA was purified from human seminal fluid as described previously (3); from tissue; host or cells: human seminal fluid; conditions: for effect of derivatization or labeling on PSA binding activity, read as effect on PSA enzyme activity (in words): PSA (0.33 mM / 0.33 μM as printed); for effect of derivatization or labeling on PSA binding activity, read as effect on PSA enzyme activity (in words) / effect on the enzyme activity of PSA (in words): S-2586; for effect on the enzyme activity of PSA (in words): synthetic peptides in 100-fold molar excess
Experimental: The enzyme activity of PSA was studied in the presence of peptides alone or together with Zn^2+ by using the chymotrypsin substrate S-2586 (MeO-Suc-Arg-Pro-Tyr-pNA) (Chromogenix, Mölndal, Sweden). […] PSA (333 nM) was incubated with a 1-100-fold molar excess of GST-peptide or 100-fold excess of synthetic peptide in TBS buffer, pH 7.8 containing 0.5 g/L BSA for 1 h at 22° C. The effect of Zn^2+ on the enzyme activity of PSA was studied by including 1-200 μM of ZnCl2 in the reaction buffer. The combined effect of peptides and Zn2+ on the enzyme activity of PSA was studied by incubating PSA (333 nM) with peptide (333 nM) in the buffer containing 1-200 μM Zn^2+ for 1 h. After addition of substrate to a final concentration 0.2 mM, the absorbance was monitored at 5-min intervals for 2 h at 405 nm on a Labsystems Multiskan MCC/340 photometer (Labsystems, Helsinki, Finland). As a control, the effect of wild type GST on the enzyme activity of PSA was tested.
In the experiments, PSA (0.33 μM) was incubated with increasing concentrations of GST-C-4 (0-100-fold molar excess) for 1 h, after which the chromogenic substrate S-2586 was added and enzyme activity was monitored by measuring the absorbance at 405 nm. Data represent mean values from duplicate wells ±SE.
PSA (0.33 μM) was incubated with chemically synthesized peptides (100-fold molar excess) for 1 h, after which the chromogenic substrate S-2586 was added and enzyme activity was monitored by measuring the absorbance at 405 nm.
Because zinc is known to inhibit the enzyme activity of PSA, we further characterized the effect of GST-peptides on the enzyme activity of PSA by assessing the combined effect of peptides and Zn^2+. […] The effect of GST-C-4 and Zn^2+ on enzyme activity was determined by incubating PSA (0.33 μM) with the same molar concentration of GST-C-4 and various concentrations of Zn^2+. The reaction was monitored by measuring absorbance at 405 nm after addition of the chromogenic substrate S-2586. […] Data represent mean values from duplicate wells ±SE.
(§1) Data represent mean values from duplicate wells ±SE.
As control the enzyme activity of PSA alone was measured.
as §1
20 μg of the peptide was iodinated by the Iodogen method. After iodination the peptide was purified by using C18 Sep-Pak column.

PSA [3] = molecular target: T1, PSA; assay: Inhibition of GST-peptide binding to PSA by chemically synthesized peptides; design: PSA was purified from human seminal fluid as described previously (3); from tissue; conditions: synthetic peptide GACVAYCIEHHCWTCGA in 20-fold molar excess
Experimental: Peptides A1 and C4 were synthesized by standard solid phase Merrifield peptide synthesis using fmoc-chemistry. The peptides were assayed for binding with PSA by studying the ability of the synthetic peptide to inhibit the binding of the corresponding GST peptide with PSA. Synthetic peptide (0-333 nM) and the corresponding GST peptide (167 nM) were incubated with PSA captured by MAb 5E4 for 1 h. After this, the wells were washed, after which Eu^3+-labeled anti GST antibody was added. After further incubation and washing the bound fluorescence was measured as described above.
PSA had been captured by anti-PSA MAb in the microtitration wells. The binding was measured by IFMA.

PSA [4] = molecular target: T1, PSA; assay: Proteolytic cleavage of IGF-BP-3 by PSA, IGF-BP-3 IFMA; assay type: biochemical; design: PSA was purified from human seminal fluid as described previously (3); from tissue; host or cells: human seminal fluid; conditions: PSA 5 μg/mL, 100-fold molar excess of synthetic peptide, IGF-BP-3 70 ng/mL, 16 h at 37° C.; PSA alone 30%
Experimental: The extent of the cleavage of the substrate was quantitated by monitoring the decrease in IGF-BP-3 immunoreactivity due to proteolytic cleavage of it. PSA (5 μg/mL) was incubated with IGF-BP-3 (70 ng/mL) for 16 h at 37° C. with 100-fold molar excess of peptides to PSA and measured for IGF-BP3 immunoreactivity by IFMA as described (33). As control, the peptide was also added to the reaction mixture containing PSA and IGF-BP3 just before starting the immunoassay to quantify the possible interference of the peptide in the IFMA for IGF-BP-3.
In the experiments, PSA (5 μg/mL) in TBS buffer, pH 7.8 alone or with 100-fold molar excess of peptide was incubated with IGF-BP-3 (70 ng/mL) for 16 h at 37° C., after which the concentration of intact IGF-BP-3 was determined by IFMA.

PSA [5] = molecular target: T1, PSA; assay: GST-peptide IFMA: binding of GST-peptides to PSA captured by MAb 5E4; design: PSA was purified from human seminal fluid as described previously (3); from tissue; host or cells: human seminal fluid; conditions: GST fusion proteins
Experimental: After washing the binding of GST-peptide was quantified by IFMA using an Eu-labelled anti GST antibody as tracer. Data represent mean values from duplicate wells ±standard error (SE).
The solid phase antibodies used in the IFMAs were coated onto microtitration wells at a concentration of 5 μg/mL in TBS for 16 h at 22° C., the solution was discarded and the wells were saturated with 10 g/L bovine serum albumin in TBS for 3 h at 22° C. The antibodies used as tracers were labeled with a Eu^3+ chelate as described previously (26). The assay buffer was 50 mM Tris-HCL, pH 7.7, 150 mM NaCl, 33.3 μM bovine serum albumin, 1 μM bovine globulin.
The binding of individual phage clones to PSA was tested by IFMA (phage IFMA). In the phage IFMA, about 30 ng of PSA was added to MAb 5E4 coated wells for 1 h. After washing (Buffer: 150 mM NaCl, 7.7 mM NaN3, 0.2 g/L Tween 20), 15 μL of phage and 200 μl assay buffer was added. After incubation for 1 h, the wells were washed and filled with 200 μl of assay buffer containing 50 ng europium-labeled anti phage monoclonal antibody recognizing the M13 coat protein of the phage. After incubation for 60 min, the wells were washed 4 times, and enhancement solution (EG&G-Wallac) was added. The fluorescence was quantified with a 1234 DELFIA Research fluorometer (EG&G-Wallac). Binding of GST-peptide to PSA was determined by an IFMA (GST-peptide IFMA) similar to the one for phage peptides except that Eu^3+-labeled antibody to GST was used. Various amounts of GST-peptide or wild type GST were added to wells containing captured PSA in 200 μL of assay buffer and incubated for 1 h. To test the effect of Zn^2+ on the binding between GST-peptide and PSA, various concentrations of Zn^2+ (1-200 μM) were added to the buffer in the incubation step of GST-peptide and PSA. In competition experiments, GST-peptide (167 nM) or wild type GST were first incubated with increasing amounts of PSA (0-333 nM) in 0.5% BSA-TBS buffer for 60 min, then added to wells containing PSA captured by MAb 5E4. After incubation for 1 h the wells were washed and Eu^3+-labeled anti GST antibody was added. After further incubation and washing the bound fluorescence was measured as described above. When assessing the binding of the GST-peptides to other proteinases, including chymotrypsin, cathepsin G, trypsin, and kallikrein, these proteinases were captured by their specific antibodies coated to the microtitration well. Recombinant hK2 was captured by MAb 5E4, which is known to bind hK2 (24). For assessing the binding of the GST-peptides with complexes of PSA, including PSA-ACT and PSA-α1-protease inhibitor (PSA-API) (28), the complexes were captured by antibodies against ACT and API, respectively. After capturing the various proteinases or PSA complexes, GST-peptide was added and binding was monitored as described above for the GST-peptide IFMA.

Molecule: CVAYCIEHHCATC [Peptide C-4-6]
activity of modified peptide (active / inactive) (PSA [1]): inactive

effect of modification on the activity of the peptide (in words) (PSA [1]): did not affect
Molecule: CVFTSNYNYC (disulfide 1-10 (inferred)) [Peptide A-1-3]

effect of modification on the activity of the peptide (in words) (PSA [1]): did not affect
Molecule: CVFAHNYNYLVC (disulfide 1-12 (inferred)) [Peptide B-2-2]

activity of modified peptide (active / inactive) (PSA [1]): inactive
Molecule: CVAYAIQHHC (disulfide 1-10 (inferred)) [Peptide C-4-4]

Molecule: 1251-labeled C4: C4-peptide (CVAYCIEHHCWTC) iodinated by the Iodogen method (not fully specified (residue 4, bridges); cysteine pairing not given here)
effect of derivatization or labeling on PSA binding activity, read as effect on PSA enzyme activity (in words) (PSA [2]; 30-fold molar excess): almost completely destroyed its binding activity

Molecule: CC[C@H](C)[C@@H]1NC(=O)[C@@H]2CSSC[C@H](NC(=O)[C@H](Cc3c[nH]cn3)NC(=O)[C@H](Cc3c[nH]cn3)NC(=O)[C@H](CCC(=O)O)NC1=O)C(=O)N[C@@H](Cc1c[nH]c3ccccc13)C(=O)N[C@@H]([C@@H](C)O)C(=O)N[C@H](C(=O)O)CSSC[C@H](N)C(=O)N[C@@H](C(C)C)C(=O)N[C@@H](C)C(=O)N[C@@H](Cc1ccc(O)cc1)C(=O)N2 [Peptide C-4] (H-CVAYCIEHHCWTC-OH; disulfide 1-13, 5-10; N-terminus and C-terminus assumed)
inhibition of the binding of the corresponding GST-peptide to PSA (PSA [3]): about 70%
cleavage of IGF-BP-3 by PSA in the presence of peptide (PSA [4]): about 70%

effect of modification on the activity of the peptide (in words) (PSA [1]): activity remained
Molecule: CVFAHNYNALVC (disulfide 1-12 (inferred)) [Peptide B-2-3]

Molecule: CVAYCIQHHCWTC [Peptide C-4-3]
effect of modification on the activity of the peptide (in words) (PSA [1]): did not affect
activity of modified peptide (active / inactive) (PSA [1]): active

Molecule: SKSKSKS—aca-CVAYCIEHHCWTC (SKSKSKS[Ahx]CVAYCIEHHCWTC; not fully specified (bridges); printed as SKSKSKS—aca-CVAYCIEHHCWTC; cysteine pairing not given here) [SKSKSKS (SEQ ID NO:47)-tailed C4]
effect of derivatization or labeling on PSA binding activity, read as effect on PSA enzyme activity (in words) (PSA [2]; 30-fold molar excess): did not affect the binding activity

binding to PSA in GST-peptide IFMA (in words) (PSA [5]): did not bind
Molecule: Wild type GST: wild type glutathione S-transferase without inserted peptide, control [reference compound]
effect on the enzyme activity of PSA (in words) (PSA [2]): did not affect
effect on the enzyme activity of PSA (in words) (PSA [2]; listed as wild type GST): no effect

Molecule: CLSTCAQSCRISC [Peptide D-1]
binding to PSA in GST-peptide IFMA (in words) (PSA [5]): did not show significant binding

Molecule: Eu-labelled C4-peptide: C4 peptide labelled with Eu-chelate, C18 fractions 26-28 (CVAYCIEHHCWTC; disulfide 1-13, 5-10; also: Eu-chelate label, site not given here)
effect of Eu-labelled peptide fractions on enzyme activity of PSA (PSA [2]; PSA 0.33 μM, 100 μL of C18 fractions 26-28): enhanced the enzyme activity of PSA strongly

effect of modification on the activity of the peptide (in words) (PSA [1]): did not affect
Molecule: CVFTSNYAFC (disulfide 1-10 (inferred)) [Peptide A-1-4]

effect of modification on the activity of the peptide (in words) (PSA [1]): did not affect
Molecule: CVFTSNYAYC (disulfide 1-10 (inferred)) [Peptide A-1-2]

Molecule: Tc99m-labeled C4: reduced C4-peptide labeled with 99mTc between thiol-sulfurs (HDP method) (CVAYCIEHHCWTC; also: 99mTc complexed between reduced thiol sulfurs (HDP method))
reduction of binding by technetium labeling (PSA [2]; PSA 0.33 μM, 30-fold molar excess, compared with unlabelled C4): about 50%
